5 molecules from US20060252116A1 (published 2006) can be followed below.

Assay [1] has as its target T1, αv integrins (as found on HT1080 cells) (UniProt P06756 31-1048).
T1 construct: whole, on cells; also called αv integrin ligand
The assay can be described thus: HT1080 cell adhesion to coated murine ICAM-4Fc (5 ug/ml), peptide 500 uM; competitor murine ICAM-4Fc. On the procedure:
FIG. 14. […] Murine ICAM-4Fc was coated at a concentration of 5 μg/ml, peptides were used at 500 μM final concentration for each peptide, and each data point is the mean of two independent assays.
(§1) Cell adhesion assays were performed as described in Spring et al. 2001 (supra). Immulon4 96 well plates (Dynex Technologies, Billingshurst, United Kingdom) were coated with 1 μg/well goat-antihuman-Fc (Sigma, Poole, United Kingdom) for 24 hours at 4° C., washed three times with PBS and coated with an Fc fusion ICAM-4 protein for 18 hours at 4° C. before blocking with 0.4% BSA PBS for 2 hours at 22° C. Cells were labelled with 10 μg/ml 2′,7′-bis-(2-carboxyethyl)-5-(and-6-) carboxyfluorescein acetoxymethyl ester in assay buffer (IMEM, 2 mM EGTA, 10 μg/ml human ivIgG) for 15 minutes at 37° C. HT1080 cells were activated with 80 μM phorbol myristate acetate prior to both cells being washed with assay buffer containing 2 mM Mn²⁺. Cells, at 5×10⁴ cells per well, were added to the ICAM-4Fc-coated plates for 30 minutes at 37° C., prior to being given repeated washes in assay buffer and read on a fluorescence microplate reader (excitation 485 nm, emission 530 nm). The percentage of bound cells was calculated after each wash. Peptide inhibition was performed by incubating the cells with 500 μM peptide at 0° C. for 15 minutes ahead of their addition, still in the presence of 500 μM peptide to the ICAM-4Fc coated plates.

The target in assay [2] is T1, αv integrins (as found on HT1080 cells). Description: HT1080 cell adhesion to coated human ICAM-4Fc (5 ug/ml); value is for the MIXTURE with control peptide SEQ ID NO: 13, each peptide 750 uM. On the procedure:
(§2) Human ICAM-4Fc was coated at a concentration of 5 μg/ml, peptides were used at 750 μM final concentration for each peptide, and each data point is the mean of two independent assays.
as §1, with “plates. In peptide inhibition studies the appropriate ICAM-4Fc coating concentration for each cell line was pre-determined by titration of ICAM-4Fc and the lowest concentration at which maximal binding was achieved was used to coat the plates” for “plates.”

For assay [3] the target is unchanged. Description: HT1080 cell adhesion to coated human ICAM-4Fc (5 ug/ml), peptide 750 uM; competitor human ICAM-4Fc. The procedure: as §2
as §1, with “plates. In peptide inhibition studies the appropriate ICAM-4Fc coating concentration for each cell line was pre-determined by titration of ICAM-4Fc and the lowest concentration at which maximal binding was achieved was used to coat the plates” for “plates.”

Assay [4] shares this target. Description: HT1080 cell adhesion to coated human ICAM-4Fc (7.5 ug/ml), peptide 500 uM; competitor human ICAM-4Fc. On the procedure:
FIG. 10. […] Human ICAM-4Fc was coated at a concentration of 7.5 μg/ml, peptides were used at 500 μM final concentration for each peptide, and each data point is the mean of three independent assays.
as §1

Assay [5] shares this target. The assay can be described thus: HT1080 cell adhesion to coated human ICAM-4Fc (5 ug/ml); value is for the MIXTURE of SEQ ID NO: 9, 10 and 11, each peptide 750 uM. On the procedure: as §2
as §1, with “plates. In peptide inhibition studies the appropriate ICAM-4Fc coating concentration for each cell line was pre-determined by titration of ICAM-4Fc and the lowest concentration at which maximal binding was achieved was used to coat the plates” for “plates.”

Assay [6] concerns the target T2, αLβ2 integrin (UniProt P20701 26-1170; P05107 23-769).
T2 construct: whole, on cells; also called LFA-1; β2 integrins
The assay can be described thus: neutrophil adhesion to coated ICAM-4Fc with blocking integrin antibodies. On the procedure: (§3) Utilising blocking β integrin subunit antibodies and our blocking ICAM-4 peptides (i.e., SEQ ID NOs: 9, 10, 11 and 13—see Example 1) in a microplate neutrophil adhesion assay. Neutrophils were purified from buffy coats (obtained from the National Blood Service, Bristol, UK) as described in Henderson et al. (1987, Biochem. J. 246: 325-329). Cell adhesion assays were performed as described in Example 1 above. […] Neutrophils were labelled with 10 μg/ml 2′,7′-bis-(2-carboxyethyl)-5-(and-6-)carboxyfluorescein acetoxymethyl ester (Sigma, Poole, UK) in assay buffer (Iscoves modified Eagle medium, 2 mM EGTA, 0.1% BSA for 15 minutes at 37° C. Neutrophils were washed with assay buffer containing 2 mM Mn²⁺. Neutrophils, at 5×10⁵ cells per well, were added to the ICAM-4Fc-coated plates for 10 minutes at 37° C., prior to being cyclically read on a fluorescence microplate reader (excitation 485 nm, emission 530 nm) and washed in assay buffer. The percentage of bound cells was calculated after each wash. Peptide and antibody inhibition was performed by incubating the cells with 500 μM peptide and 25 μg/ml antibody at 0° C. for 15 minutes before their addition to the ICAM-4 Fc coated plates. […]

Assay [7] concerns the target αMβ2 integrin (UniProt P11215 17-1152; P05107 23-769). Described as above. The procedure:
as §3

Ends that are not written are not given here.

T1 sequence (P06756 31-1048): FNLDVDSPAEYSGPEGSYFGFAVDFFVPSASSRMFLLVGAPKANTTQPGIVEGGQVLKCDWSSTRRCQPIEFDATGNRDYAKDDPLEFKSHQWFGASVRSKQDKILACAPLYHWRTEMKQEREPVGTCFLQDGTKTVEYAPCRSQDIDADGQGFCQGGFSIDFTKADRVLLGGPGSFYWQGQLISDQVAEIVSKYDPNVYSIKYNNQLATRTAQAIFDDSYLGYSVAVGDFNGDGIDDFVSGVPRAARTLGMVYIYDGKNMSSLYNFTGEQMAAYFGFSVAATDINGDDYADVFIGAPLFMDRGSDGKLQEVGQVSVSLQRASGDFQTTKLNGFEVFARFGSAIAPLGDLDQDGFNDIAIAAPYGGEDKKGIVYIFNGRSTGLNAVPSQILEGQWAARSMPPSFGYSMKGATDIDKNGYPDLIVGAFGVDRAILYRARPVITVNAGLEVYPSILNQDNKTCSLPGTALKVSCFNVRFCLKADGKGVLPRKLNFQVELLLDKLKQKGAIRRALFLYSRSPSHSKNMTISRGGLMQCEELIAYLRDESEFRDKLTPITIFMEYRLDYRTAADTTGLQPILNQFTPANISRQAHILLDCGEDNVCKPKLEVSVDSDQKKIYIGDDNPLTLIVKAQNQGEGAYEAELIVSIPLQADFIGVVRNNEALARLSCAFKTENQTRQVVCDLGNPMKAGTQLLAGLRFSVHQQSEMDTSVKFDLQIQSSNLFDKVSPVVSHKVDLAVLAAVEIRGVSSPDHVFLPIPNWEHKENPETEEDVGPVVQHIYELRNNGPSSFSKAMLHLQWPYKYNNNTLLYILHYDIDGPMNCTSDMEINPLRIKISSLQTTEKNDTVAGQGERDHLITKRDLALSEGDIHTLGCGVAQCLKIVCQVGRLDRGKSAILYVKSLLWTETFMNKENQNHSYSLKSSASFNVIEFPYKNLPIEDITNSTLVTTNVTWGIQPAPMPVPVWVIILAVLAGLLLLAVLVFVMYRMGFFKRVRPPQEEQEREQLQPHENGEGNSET

B1: svpFWVrms peptide (SEQ ID NO: 9) (peptide)
peptide: SVPFWVRMS
notes: Nine residues of the A strand of domain 1 of mature human ICAM-4, starting at S15; also called A strand peptide
In the case of B1, in assay [1], the “input cells bound as % of binding to murine ICAM-4Fc in the absence of peptides” value was 60%. In addition, the “input cells bound as % of binding to ICAM-4Fc in the absence of peptides” value in assay [2] was found to be 40%; in assay [3], 41%; in assay [4], 46%; in assay [5] it was 52%.

B2: aWssLahcl peptide (SEQ ID NO: 11) (peptide)
peptide: AWSSLAHCL
notes: Nine residues of the F strand of domain 1 of mature human ICAM-4, starting at A76; also called F strand peptide
Regarding B2, the “input cells bound as % of binding to ICAM-4Fc in the absence of peptides” value in assay [2] amounted to 64%; in assay [3], 71%; in assay [5], 52%.

B3: tRwATSRit peptide (SEQ ID NO: 10) (peptide)
peptide: TRWATSRIT
modifications: not fully specified (residues 1, 3, 8, 9)
notes: Nine residues of the G strand of domain 1 of mature human ICAM-4, starting at T91; also called G strand peptide
Regarding B3, in assay [1], the “input cells bound as % of binding to murine ICAM-4Fc in the absence of peptides” value came to 80%. In addition, the “input cells bound as % of binding to ICAM-4Fc in the absence of peptides” value in assay [2] is 39%; in assay [3], 42%; in assay [4] it was 60%; in assay [5], 52%.

B4: rqgktlrgp peptide (SEQ ID NO: 13) (peptide)
peptide: RQGKTLRGP
notes: Control peptide; nine residues of the D strand of domain 1 of mature human ICAM-4, starting at R56; also called D strand peptide
With B4, in assay [1], the “input cells bound as % of binding to murine ICAM-4Fc in the absence of peptides” value came to 92%. Moreover, the “input cells bound as % of binding to ICAM-4Fc in the absence of peptides” value in assay [3] was 96%; in assay [4], 97%.

B5: human ICAM-4Fc (Fc fusion)
chain: AQSPKGSPLAPSGTSVPFWVRMSPEFVAVQPGKSVQLNCSNSCPQPQNSSLRTPLRQGKTLRGPGWVSYQLLDVRAWSSLAHCLVTCAGKTRWATSRITAYKPPHSVILEPPVLKGRKYTLRCHVTQVFPVGYLVVTLRHGSRVIYSESLERFTGLDLANVTLTYEFAAGPRDFWQPVICHARLNLDGLVVRNSSAPITLMLAWSPAPTA
notes: Expressed in COS-7 cells, purified on protein A; also called Fc fusion ICAM-4 protein; wild-type ICAM-4Fc; not shown: Fc part from the pIg vector
B5: the binding result in assay [6] and in assay [7] was “binds” throughout.
